# Laboratory results from patent publication CN101415728A.
# B1: M14-C03.G4.P.agly (antibody, part only; not given: constant regions, human IgG4, part only)
# heavy, part: EVQLLESGGGLVQPGGSLRLSCAASGFTFSKYMMSWVRQAPGKGLEWVSYISPSGGLTWYADSVKGRFTISRDNSKNTLYLQMNSLRAEDTAVYYCARDGARGYGMDVWGQGTTVTVSS
# light, part: DIQMTQSPATLSLSPGERATLSCRASQSVSSYLAWYQQKPGQAPRLLIYDASNRATGIPARFSGSGSGTDFTLTISSLEPEDFAVYYCQQRSNWPPEVTFGPGTKVDIK
# B2: M13-C06.G4.P.agly (antibody, part only; not given: constant regions, part only)
# heavy, part: EVQLLESGGGLVQPGGSLRLSCAASGFTFSIYRMQWVRQAPGKGLEWVSGISPSGGTTWYADSVKGRFTISRDNSKNTLYLQMNSLRAEDTAVYYCARWSGGSGYAFDIWGQGTMVTVSS
# light, part: DIQMTQSPLSLSASVGDRVTITCQASRDIRNYLNWYQQKPGKAPKLLIYDASSLQTGVPSRFGGSGSGTDFSFTIGSLQPEDIATYYCQQFDSLPHTFGQGTKLEIK
# Target: human IGF-1R expressed on cells (human)
# Assay: cell-based or functional assay
row,Binder,"inhibition of IGF-1- and IGF-2-mediated IGF-1R phosphorylation in MCF-7 cells, EC50"
1,B1,< 1 nM
2,B2,< 1 nM
